Columns and labels:
[1] = target: T1, Human SLIT3-N (human, UniProt O75094 34-1119, limits assumed); test: HTRF competition: d2-labelled human SLIT3-N binding to human ROBO2 on HEK293 cells; geometric mean, n=3
T1 construct: domain: SLIT3-N; d2-labelled in the HTRF assay
T1 sequence (looked up): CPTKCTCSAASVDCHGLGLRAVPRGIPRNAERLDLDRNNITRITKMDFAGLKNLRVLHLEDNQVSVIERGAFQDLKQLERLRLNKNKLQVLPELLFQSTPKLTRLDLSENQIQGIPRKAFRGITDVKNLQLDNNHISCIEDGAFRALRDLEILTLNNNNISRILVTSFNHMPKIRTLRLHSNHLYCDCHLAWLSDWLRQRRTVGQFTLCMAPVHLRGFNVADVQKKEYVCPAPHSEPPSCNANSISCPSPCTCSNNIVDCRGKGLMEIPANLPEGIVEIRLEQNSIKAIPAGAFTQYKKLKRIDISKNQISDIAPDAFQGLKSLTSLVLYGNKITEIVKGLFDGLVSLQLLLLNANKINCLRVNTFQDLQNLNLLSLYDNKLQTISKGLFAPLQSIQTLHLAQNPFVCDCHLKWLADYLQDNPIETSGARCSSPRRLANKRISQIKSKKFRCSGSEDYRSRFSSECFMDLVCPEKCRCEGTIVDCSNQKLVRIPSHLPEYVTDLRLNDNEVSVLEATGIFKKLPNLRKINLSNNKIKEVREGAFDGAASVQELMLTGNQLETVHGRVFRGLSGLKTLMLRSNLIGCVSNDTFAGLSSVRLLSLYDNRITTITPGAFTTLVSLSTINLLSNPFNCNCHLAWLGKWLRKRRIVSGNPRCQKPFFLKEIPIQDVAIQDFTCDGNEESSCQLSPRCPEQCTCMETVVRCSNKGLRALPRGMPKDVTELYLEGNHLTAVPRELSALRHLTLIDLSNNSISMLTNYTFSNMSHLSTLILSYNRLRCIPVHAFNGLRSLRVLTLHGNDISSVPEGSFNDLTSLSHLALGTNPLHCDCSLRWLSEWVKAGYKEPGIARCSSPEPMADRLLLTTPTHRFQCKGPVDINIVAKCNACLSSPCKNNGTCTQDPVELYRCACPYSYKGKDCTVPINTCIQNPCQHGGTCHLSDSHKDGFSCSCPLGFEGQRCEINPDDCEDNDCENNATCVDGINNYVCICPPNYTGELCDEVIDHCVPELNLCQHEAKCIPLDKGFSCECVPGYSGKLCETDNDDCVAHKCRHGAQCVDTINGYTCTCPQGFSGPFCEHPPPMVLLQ
Method: (§1) After incubation, fluorescence at 665 nm and 620 nm was measured on an Envision multilabel plate reader. The HTRF Ratio was calculated as follows: fluorescence at 665 nm/fluorescence at 620 nm×10,000. […] The IC₅₀ for each SLITx-N was determined using an 11-point, 4-fold dilution series with a top concentration of 4000 nM.

[2] = target: T2, Rat SLIT2-N (rat, UniProt Q9WVC1 31-766, limits assumed); test: HTRF competition: d2-labelled rat SLIT2-N binding to human ROBO2 on HEK293 cells (competitor: cell surface ROBO2)
T2 construct: domain: SLIT2-N (N terminal fragment)
T2 sequence (looked up): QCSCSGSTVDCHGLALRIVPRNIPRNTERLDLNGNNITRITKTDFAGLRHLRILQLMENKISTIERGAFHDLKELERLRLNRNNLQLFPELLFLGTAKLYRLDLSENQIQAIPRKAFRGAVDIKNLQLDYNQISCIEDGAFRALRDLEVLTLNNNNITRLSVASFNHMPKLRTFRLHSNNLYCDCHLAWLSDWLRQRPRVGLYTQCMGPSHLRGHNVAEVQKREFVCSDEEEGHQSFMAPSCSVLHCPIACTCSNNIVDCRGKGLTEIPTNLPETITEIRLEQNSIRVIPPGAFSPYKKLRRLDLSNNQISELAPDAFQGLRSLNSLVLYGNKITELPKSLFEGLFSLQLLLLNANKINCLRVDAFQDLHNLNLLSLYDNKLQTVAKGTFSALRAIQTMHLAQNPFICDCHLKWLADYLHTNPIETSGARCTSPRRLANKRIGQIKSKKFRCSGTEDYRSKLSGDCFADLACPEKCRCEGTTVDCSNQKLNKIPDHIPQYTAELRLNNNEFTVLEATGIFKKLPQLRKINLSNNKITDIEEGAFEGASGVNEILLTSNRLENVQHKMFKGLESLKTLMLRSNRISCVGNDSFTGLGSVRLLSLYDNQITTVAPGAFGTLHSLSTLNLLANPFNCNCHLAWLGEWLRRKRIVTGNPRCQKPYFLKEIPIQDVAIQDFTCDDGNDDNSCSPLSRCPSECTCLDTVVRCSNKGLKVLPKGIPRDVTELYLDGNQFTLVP
Method: as §1

B1: ROBO2-Fc 2.2 (Fc fusion)
chain: SRLRQEDFPPRIVEHPSDVIVSKGEPTTLNCKAEGRPTPTIEWYKDGERVETDKDDPRSHRMLLPSGSLFFLRIVHGRRSKPDEGSYVCVARNYLGEAVSRNASLEVALLRDDFRQNPTDVVVAAGEPAILECQPPRGHPEPTIYWKKDKVRIDDKEERISIRGGKLMISNTRKSDAGMYTCVGTNMVGERDSDPAELTVFERGGSGGSEPKSSDKTHTCPPCPAPEAAGAPSVFLFPPKPKDTLMISRTPEVTCVVVDVSHEDPEVKFNWYVDGVEVHNAKTKPREEQYNSTYRVVSVLTVLHQDWLNGKEYKCKVSNKALPAPIEKTISKAKGQPREPQVYTLPPSREEMTKNQVSLTCLVKGFYPSDIAVEWESNGQPENNYKTTPPVLDSDGSFFLYSKLTVDKSRWQQGNVFSCSVMHEALHNHYTQKSLSLSPG
notes: Labelled with Alexa Fluor 647 in the flow cytometry assay; also called ROBO-Fc 2.2; ROBO2-Fc 2.2-AF647
IC50 [1]: 5.1 nM | IC50 [2]: 4 nM
